These are literature values, as cited in patent publication US5362858A, “Polyethylene glycol-hirudin conjugates, process for preparing them and their use for the treatment of thromboses” (Transgene S.A., priority 1992, dated 1994).

The conditions of the series: removal from the bloodstream.

For hirudin, the half-life period entry is recorded as “about 1 h”.
